* marks the point of attachment. C18 diacid = O=C(O)CCCCCCCCCCCCCCCCC(=O)*
T1: human amylin 3(a) receptor (human calcitonin receptor co-expressed with RAMP-3) (human, UniProt P30988 25-474; O60896 24-148, limits assumed)
T1 sequence (looked up) 1: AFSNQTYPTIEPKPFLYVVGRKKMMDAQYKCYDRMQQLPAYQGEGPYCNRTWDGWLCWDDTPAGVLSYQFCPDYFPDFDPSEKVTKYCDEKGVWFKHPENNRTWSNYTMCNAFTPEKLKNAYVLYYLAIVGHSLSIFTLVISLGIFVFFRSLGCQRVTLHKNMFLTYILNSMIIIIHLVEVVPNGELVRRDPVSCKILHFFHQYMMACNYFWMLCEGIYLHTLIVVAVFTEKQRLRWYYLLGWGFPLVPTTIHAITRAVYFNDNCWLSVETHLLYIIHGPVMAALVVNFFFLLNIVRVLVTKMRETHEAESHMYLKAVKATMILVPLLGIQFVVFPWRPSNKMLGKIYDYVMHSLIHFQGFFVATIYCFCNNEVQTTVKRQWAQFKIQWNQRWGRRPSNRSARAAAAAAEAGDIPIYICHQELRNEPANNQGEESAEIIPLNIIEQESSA
T1 sequence (looked up) 2: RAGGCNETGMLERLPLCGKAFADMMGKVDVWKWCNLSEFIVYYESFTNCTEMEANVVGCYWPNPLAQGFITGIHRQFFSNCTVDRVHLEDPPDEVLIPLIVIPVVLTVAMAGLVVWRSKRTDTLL

T2: human calcitonin receptor (human, UniProt P30988 25-474)
T2 sequence (looked up): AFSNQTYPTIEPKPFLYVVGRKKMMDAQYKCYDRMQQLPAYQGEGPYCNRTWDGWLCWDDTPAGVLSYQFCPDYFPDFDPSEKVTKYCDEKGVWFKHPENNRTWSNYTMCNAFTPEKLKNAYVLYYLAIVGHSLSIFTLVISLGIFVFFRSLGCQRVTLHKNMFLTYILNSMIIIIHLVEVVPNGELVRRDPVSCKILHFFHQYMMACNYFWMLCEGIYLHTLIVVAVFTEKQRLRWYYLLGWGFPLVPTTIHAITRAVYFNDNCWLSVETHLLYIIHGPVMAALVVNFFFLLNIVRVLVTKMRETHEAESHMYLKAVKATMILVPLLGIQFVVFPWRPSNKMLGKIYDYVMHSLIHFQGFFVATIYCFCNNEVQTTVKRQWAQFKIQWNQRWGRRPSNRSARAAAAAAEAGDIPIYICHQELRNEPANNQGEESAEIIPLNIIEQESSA

B1: [N-terminal(C18 diacid), 9V, 10I]mimylin (peptide)
peptide: {C18 diacid}-EASELSTAVIGRLSAELHELATLPRTETGPESP-NH2
SMILES: CC[C@H](C)[C@H](NC(=O)[C@@H](NC(=O)[C@H](C)NC(=O)[C@@H](NC(=O)[C@H](CO)NC(=O)[C@H](CC(C)C)NC(=O)[C@H](CCC(=O)O)NC(=O)[C@H](CO)NC(=O)[C@H](C)NC(=O)[C@H](CCC(=O)O)NC(=O)CCCCCCCCCCCCCCCCC(=O)O)[C@@H](C)O)C(C)C)C(=O)NCC(=O)N[C@@H](CCCNC(=N)N)C(=O)N[C@@H](CC(C)C)C(=O)N[C@@H](CO)C(=O)N[C@@H](C)C(=O)N[C@@H](CCC(=O)O)C(=O)N[C@@H](CC(C)C)C(=O)N[C@@H](Cc1c[nH]cn1)C(=O)N[C@@H](CCC(=O)O)C(=O)N[C@@H](CC(C)C)C(=O)N[C@@H](C)C(=O)N[C@H](C(=O)N[C@@H](CC(C)C)C(=O)N1CCC[C@H]1C(=O)N[C@@H](CCCNC(=N)N)C(=O)N[C@H](C(=O)N[C@@H](CCC(=O)O)C(=O)N[C@H](C(=O)NCC(=O)N1CCC[C@H]1C(=O)N[C@@H](CCC(=O)O)C(=O)N[C@@H](CO)C(=O)N1CCC[C@H]1C(N)=O)[C@@H](C)O)[C@@H](C)O)[C@@H](C)O
B2: [N-terminal(C18 diacid), 9V, 25P]mimylin (peptide)
peptide: {C18 diacid}-EASELSTAVLGRLSAELHELATLPPTETGPESP-NH2
SMILES: CC(C)C[C@H](NC(=O)[C@H](CCC(=O)O)NC(=O)[C@H](Cc1c[nH]cn1)NC(=O)[C@H](CC(C)C)NC(=O)[C@H](CCC(=O)O)NC(=O)[C@H](C)NC(=O)[C@H](CO)NC(=O)[C@H](CC(C)C)NC(=O)[C@H](CCCNC(=N)N)NC(=O)CNC(=O)[C@H](CC(C)C)NC(=O)[C@@H](NC(=O)[C@H](C)NC(=O)[C@@H](NC(=O)[C@H](CO)NC(=O)[C@H](CC(C)C)NC(=O)[C@H](CCC(=O)O)NC(=O)[C@H](CO)NC(=O)[C@H](C)NC(=O)[C@H](CCC(=O)O)NC(=O)CCCCCCCCCCCCCCCCC(=O)O)[C@@H](C)O)C(C)C)C(=O)N[C@@H](C)C(=O)N[C@H](C(=O)N[C@@H](CC(C)C)C(=O)N1CCC[C@H]1C(=O)N1CCC[C@H]1C(=O)N[C@H](C(=O)N[C@@H](CCC(=O)O)C(=O)N[C@H](C(=O)NCC(=O)N1CCC[C@H]1C(=O)N[C@@H](CCC(=O)O)C(=O)N[C@@H](CO)C(=O)N1CCC[C@H]1C(N)=O)[C@@H](C)O)[C@@H](C)O)[C@@H](C)O
B3: [N-terminal(C18 diacid), 4P, 9V]mimylin (peptide)
peptide: {C18 diacid}-EASPLSTAVLGRLSAELHELATLPRTETGPESP-NH2
SMILES: CC(C)C[C@H](NC(=O)[C@H](CCC(=O)O)NC(=O)[C@H](Cc1c[nH]cn1)NC(=O)[C@H](CC(C)C)NC(=O)[C@H](CCC(=O)O)NC(=O)[C@H](C)NC(=O)[C@H](CO)NC(=O)[C@H](CC(C)C)NC(=O)[C@H](CCCNC(=N)N)NC(=O)CNC(=O)[C@H](CC(C)C)NC(=O)[C@@H](NC(=O)[C@H](C)NC(=O)[C@@H](NC(=O)[C@H](CO)NC(=O)[C@H](CC(C)C)NC(=O)[C@@H]1CCCN1C(=O)[C@H](CO)NC(=O)[C@H](C)NC(=O)[C@H](CCC(=O)O)NC(=O)CCCCCCCCCCCCCCCCC(=O)O)[C@@H](C)O)C(C)C)C(=O)N[C@@H](C)C(=O)N[C@H](C(=O)N[C@@H](CC(C)C)C(=O)N1CCC[C@H]1C(=O)N[C@@H](CCCNC(=N)N)C(=O)N[C@H](C(=O)N[C@@H](CCC(=O)O)C(=O)N[C@H](C(=O)NCC(=O)N1CCC[C@H]1C(=O)N[C@@H](CCC(=O)O)C(=O)N[C@@H](CO)C(=O)N1CCC[C@H]1C(N)=O)[C@@H](C)O)[C@@H](C)O)[C@@H](C)O
B4: [N-terminal(C18 diacid), 2P, 9V]mimylin (peptide)
peptide: {C18 diacid}-EPSELSTAVLGRLSAELHELATLPRTETGPESP-NH2
SMILES: CC(C)C[C@H](NC(=O)[C@H](CCC(=O)O)NC(=O)[C@H](Cc1c[nH]cn1)NC(=O)[C@H](CC(C)C)NC(=O)[C@H](CCC(=O)O)NC(=O)[C@H](C)NC(=O)[C@H](CO)NC(=O)[C@H](CC(C)C)NC(=O)[C@H](CCCNC(=N)N)NC(=O)CNC(=O)[C@H](CC(C)C)NC(=O)[C@@H](NC(=O)[C@H](C)NC(=O)[C@@H](NC(=O)[C@H](CO)NC(=O)[C@H](CC(C)C)NC(=O)[C@H](CCC(=O)O)NC(=O)[C@H](CO)NC(=O)[C@@H]1CCCN1C(=O)[C@H](CCC(=O)O)NC(=O)CCCCCCCCCCCCCCCCC(=O)O)[C@@H](C)O)C(C)C)C(=O)N[C@@H](C)C(=O)N[C@H](C(=O)N[C@@H](CC(C)C)C(=O)N1CCC[C@H]1C(=O)N[C@@H](CCCNC(=N)N)C(=O)N[C@H](C(=O)N[C@@H](CCC(=O)O)C(=O)N[C@H](C(=O)NCC(=O)N1CCC[C@H]1C(=O)N[C@@H](CCC(=O)O)C(=O)N[C@@H](CO)C(=O)N1CCC[C@H]1C(N)=O)[C@@H](C)O)[C@@H](C)O)[C@@H](C)O
B5: [N-terminal(C18 diacid), 3P, 9V]mimylin (peptide)
peptide: {C18 diacid}-EAPELSTAVLGRLSAELHELATLPRTETGPESP-NH2
SMILES: CC(C)C[C@H](NC(=O)[C@H](CCC(=O)O)NC(=O)[C@H](Cc1c[nH]cn1)NC(=O)[C@H](CC(C)C)NC(=O)[C@H](CCC(=O)O)NC(=O)[C@H](C)NC(=O)[C@H](CO)NC(=O)[C@H](CC(C)C)NC(=O)[C@H](CCCNC(=N)N)NC(=O)CNC(=O)[C@H](CC(C)C)NC(=O)[C@@H](NC(=O)[C@H](C)NC(=O)[C@@H](NC(=O)[C@H](CO)NC(=O)[C@H](CC(C)C)NC(=O)[C@H](CCC(=O)O)NC(=O)[C@@H]1CCCN1C(=O)[C@H](C)NC(=O)[C@H](CCC(=O)O)NC(=O)CCCCCCCCCCCCCCCCC(=O)O)[C@@H](C)O)C(C)C)C(=O)N[C@@H](C)C(=O)N[C@H](C(=O)N[C@@H](CC(C)C)C(=O)N1CCC[C@H]1C(=O)N[C@@H](CCCNC(=N)N)C(=O)N[C@H](C(=O)N[C@@H](CCC(=O)O)C(=O)N[C@H](C(=O)NCC(=O)N1CCC[C@H]1C(=O)N[C@@H](CCC(=O)O)C(=O)N[C@@H](CO)C(=O)N1CCC[C@H]1C(N)=O)[C@@H](C)O)[C@@H](C)O)[C@@H](C)O
B6: [N-terminal(C18 diacid), 9V, 28P]mimylin (peptide)
peptide: {C18 diacid}-EASELSTAVLGRLSAELHELATLPRTEPGPESP-NH2
SMILES: CC(C)C[C@H](NC(=O)[C@H](CCC(=O)O)NC(=O)[C@H](Cc1c[nH]cn1)NC(=O)[C@H](CC(C)C)NC(=O)[C@H](CCC(=O)O)NC(=O)[C@H](C)NC(=O)[C@H](CO)NC(=O)[C@H](CC(C)C)NC(=O)[C@H](CCCNC(=N)N)NC(=O)CNC(=O)[C@H](CC(C)C)NC(=O)[C@@H](NC(=O)[C@H](C)NC(=O)[C@@H](NC(=O)[C@H](CO)NC(=O)[C@H](CC(C)C)NC(=O)[C@H](CCC(=O)O)NC(=O)[C@H](CO)NC(=O)[C@H](C)NC(=O)[C@H](CCC(=O)O)NC(=O)CCCCCCCCCCCCCCCCC(=O)O)[C@@H](C)O)C(C)C)C(=O)N[C@@H](C)C(=O)N[C@H](C(=O)N[C@@H](CC(C)C)C(=O)N1CCC[C@H]1C(=O)N[C@@H](CCCNC(=N)N)C(=O)N[C@H](C(=O)N[C@@H](CCC(=O)O)C(=O)N1CCC[C@H]1C(=O)NCC(=O)N1CCC[C@H]1C(=O)N[C@@H](CCC(=O)O)C(=O)N[C@@H](CO)C(=O)N1CCC[C@H]1C(N)=O)[C@@H](C)O)[C@@H](C)O
B7: [N-terminal(C18 diacid), 9L, 10A]mimylin (peptide)
peptide: {C18 diacid}-EASELSTALAGRLSAELHELATLPRTETGPESP-NH2
SMILES: CC(C)C[C@H](NC(=O)[C@H](C)NC(=O)[C@@H](NC(=O)[C@H](CO)NC(=O)[C@H](CC(C)C)NC(=O)[C@H](CCC(=O)O)NC(=O)[C@H](CO)NC(=O)[C@H](C)NC(=O)[C@H](CCC(=O)O)NC(=O)CCCCCCCCCCCCCCCCC(=O)O)[C@@H](C)O)C(=O)N[C@@H](C)C(=O)NCC(=O)N[C@@H](CCCNC(=N)N)C(=O)N[C@@H](CC(C)C)C(=O)N[C@@H](CO)C(=O)N[C@@H](C)C(=O)N[C@@H](CCC(=O)O)C(=O)N[C@@H](CC(C)C)C(=O)N[C@@H](Cc1c[nH]cn1)C(=O)N[C@@H](CCC(=O)O)C(=O)N[C@@H](CC(C)C)C(=O)N[C@@H](C)C(=O)N[C@H](C(=O)N[C@@H](CC(C)C)C(=O)N1CCC[C@H]1C(=O)N[C@@H](CCCNC(=N)N)C(=O)N[C@H](C(=O)N[C@@H](CCC(=O)O)C(=O)N[C@H](C(=O)NCC(=O)N1CCC[C@H]1C(=O)N[C@@H](CCC(=O)O)C(=O)N[C@@H](CO)C(=O)N1CCC[C@H]1C(N)=O)[C@@H](C)O)[C@@H](C)O)[C@@H](C)O

What was measured:
[1] = biological target: T1, human amylin 3(a) receptor (human …); assay: cell-based or functional assay
[2] = biological target: T2, human calcitonin receptor; assay: cell-based or functional assay

| hAmylin-R funct. EC50 (pM) [1] [pM] | hCTR funct. EC50 (pM) [2] [pM] | Binder |
| --- | --- | --- |
| 7 | 6 | B1 |
| 14 | 6 | B2 |
| 14 | 7 | B3 |
| 8 | 7 | B4 |
| 10 | 7 | B5 |
| 31 | 12 | B6 |
| 8 | 4 | B7 |

— patent US20160272683A1 (Novo Nordisk, published 2016)
